Target: recombinant human MIF (macrophage migration inhibitory factor) (human, UniProt P14174 2-115)
Assay: Biacore; Fab fragment

Sequence of recombinant human MIF (macrophage migration inhibitory factor) (P14174 2-115): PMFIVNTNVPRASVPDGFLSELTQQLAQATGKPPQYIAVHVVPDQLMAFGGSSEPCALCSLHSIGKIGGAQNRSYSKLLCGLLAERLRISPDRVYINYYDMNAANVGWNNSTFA

Row | Binder | Kd [nM]
1 | Bax69 (antibody, V domains shown) VH: EVQLLESGGGLVQPGGSLRLSCAASGFTFSIYSMNWVRQAPGKGLEWVSSIGSSGGTTYYADSVKGRFTISRDNSKNTLYLQMNSLRAEDTAVYYCAGSQWLYGMDVWGQGTTVTVSS VL: DIQMTQSPSSLSASVGDRVTITCRSSQRIMTYLNWYQQKPGKAPKLLIFVASHSQSGVPSRFRGSGSETDFTLTISGLQPEDSATYYCQQSFWTPLTFGGGTKVEIK | 55
2 | Bax152 (antibody, V domains shown) VH: EVQLLESGGGLVQPGGSLRLSCAASGFTFSIYAMDWVRQAPGKGLEWVSGIVPSGGFTKYADSVKGRFTISRDNSKNTLYLQMNSLRAEDTAVYYCARVNVIAVAGTGYYYYGMDVWGQGTTVTVSS VL: DIQMTQSPVTLSLSPGERATLSCRASQSVRSSYLAWYQQKPGQTPRLLIYGASNRATGIPDRFSGSGSGTDFTLTISRLEPEDFAVYYCQQYGNSLTFGGGTKVEIK | 16
3 | Bax74 (antibody, V domains shown) VH: EVQLLESGGGLVQPGGSLRLSCAASGFTFSKYYMIWVRQAPGKGLEWVSWIGPSGGFTFYADSVKGRFTISRDNSKNTLYLQMNSLRAEDTAVYYCARGTPDYGGNSLDHWGQGTLVTVSS VL: DIQMTQSPSSLPASVGDRVTITCRASQSIGTYLSWYQHKPGNAPKLLIYATSRLQSGVPSRFSGGGSGTRFTLAISSLQPDDFATYFCQQTYSTPLTFGGGTKVDIK | 93

Binders with a lower Kd, results first:

Row | Kd [nM] | Binder
4 | 0.4 | BaxA10 (antibody, V domains shown) VH: EVQLLESGGGLVQPGGSLRLSCAASGFTFSWYAMDWVRQAPGKGLEWVSGIYPSGGRTKYADSVKGRFTISRDNSKNTLYLQMNSLRAEDTAVYYCARVNVIAVAGTGYYYYGMDVWGQGTTVTVSS VL: DIQMTQSPGTLSLSPGERATLSCRASQGVSSSSLAWYQQKPGQAPRLLIYGTSSRATGIPDRFSGSASGTDFTLTISRLQPEDFAVYYCQQYGRSLTFGGGTKVEIK
5 | 4 | anti-MIF antibody Bax94 (antibody, V domains shown) VH: EVQLLESGGGLVQPGGSLRLSCAASGFTFSIYAMDWVRQAPGKGLEWVSGIVPSGGFTKYADSVKGRFTISRDNSKNTLYLQMNSLRAEDTAVYYCARVNVIAVAGTGYYYYGMDVWGQGTTVTVSS VL: DIQMTQSPGTLSLSPGERATLSCRASQGVSSSSLAWYQQKPGQAPRLLIYGTSSRATGIPDRFSGSASGTDFTLTISRLQPEDFAVYYCQQYGRSLTFGGGTKVEIK
